Values of other authors as cited in patent US12628856B2, “Nutritional composition having lipophilic compounds with improved solubility and bioavailability” (Abbott Laboratories, priority 2013, dated 2026).

Details: Kd Source: Published; read-out: Lutein Kd

Kd | Molecule
450 nM | StARD3: reference protein with published lutein Kd (protein, UniProt Q14849 1-445, looked up) StAR-related lipid transfer …: MSKLPRELTRDLERSLPAVASLGSSLSHSQSLSSHLLPPPEKRRAISDVRRTFCLFVTFDLLFISLLWIIELNTNTGIRKNLEQEIIQYNFKTSFFDIFVLAFFRFSGLLLGYAVLRLRHWWVIAVTTLVSSAFLIVKVILSELLSKGAFGYLLPIVSFVLAWLETWFLDFKVLPQEAEEERWYLAAQVAVARGPLLFSGALSEGQFYSPPESFAGSDNESDEEVAGKKSFSAQEREYIRQGKEATAVVDQILAQEENWKFEKNNEYGDTVYTIEVPFHGKTFILKTFLPCPAELVYQEVILQPERMVLWNKTVTACQILQRVEDNTLISYDVSAGAAGGVVSPRDFVNVRRIERRRDRYLSSGIATSHSAKPPTHKYVRGENGPGGFIVLKSASNPRVCTFVWILNTDLKGRLPRYLIHQSLAATMFEFAFHLRQRISELGARA
1350 nM | GSTP1: reference protein with published lutein Kd (protein, UniProt P09211 2-210, looked up) Glutathione S-transferase P: PPYTVVYFPVRGRCAALRMLLADQGQSWKEEVVTVETWQEGSLKASCLYGQLPKFQDGDLTLYQSNTILRHLGRTLGLYGKDQQEAALVDMVNDGVEDLRCKYISLIYTNYEAGKDDYVKALPGQLKPFETLLSQNQGGKTFIVGDQISFADYNLLDLLLIHEVLAPGCLDAFPLLSAYVGRLSARPKLKAFLASPEYVNLPINGNGKQ
